Consider 1 substance from PMC3467265.

What is called stoichiometry N is the number of molecules, sites or subunits per partner or assembly.

The assay has as its target Cryptosporidium parvum pyruvate kinase (Cryptosporidium parvum). Put plainly: SEC; analytical Superdex 200 10/30, partially purified CpPyK, elution compared with catalase (Mr 232 kDa) run separately; fractions checked by SDS-PAGE.

For “Cryptosporidium parvum pyruvate kinase (enzyme)”, the stoichiometry N came to 4.
